16 sequences from a protein production outcome set (Wang et al. 2014) can be followed below.

The data set in a line: label from the status in PepcDB records.

Consider “MVIDQTDPIYVLFHDEEWGVPVRDDKKLFELLVFSQALAEFSWPSILRRRDDFRKLFEEFDPSAIAQFTEKRLMSLRVNGCLILSEQKLRAIVENAKSVLKVKQEFGSFSNYCWRFVNHKPLRNGYRYGRQVPVKSPKAEYISKDMMQRGFRCVGPTVMYSFLQASGIVNDHLTACFRYQECNVETERETKSHETETKLDLHSPLLV”, for which the protein production result is given as “failed”.

Regarding “MVINRKIIGSYTQRQIAALLTDEPPSEQPKCNVRVVEMTYTTVGVVGEPARASGVVLVPDGPQCPGPYPVLGWGSATETLRSAEQAKGIISANGDDPLVTRLASQGYVVVSTDYLGLGGSNYPYHPYLHANSEASALIDALRASRTVLQHLNTPLSNKLMLSGFSQGGHTAMATQREIEAHLSNEFSLVASAPISGPYALSQTFLDTWTGRNEVGENNFAIILGTYAIVGMQRTYRNIYSDPSQVFQDPWANQVEALFPGKKDTTDLFLGDDLPAIDQIKEYFQPGFYSDFPKNRKNPFFVDLVRNDLLNWAPRTPTLLCGSDNDTVVPFLKNTNLAIASFKKRGSRQVSVVDIGTGNRKDNSALTHLSSEELCIVKVRNEFLEKKR”, the protein production result is “failed”.

For the sequence “MVIRGTNNDDNLIGTTGNDIIEGLGGNDRFEGGRGNDTLTGGTGNDVFNLEQQQDNDVVTDFVRGQDKIDLRNLNINDWATLQLLISNDGQDNALITTFFNGSQSQIKLLNINPNLLQASDFIFNTVNLNQTIDGTNFADQLFGGLGNDTLRGFNGNDVLFGEQGDDRFEGGRGNDTFYGGAGNDVFNLEQQQDNDVVTDFVRGQDKIDLRNLNINDWATLQLLISNDGQDNALITTFFNGSQSQIKLLNINPNLLQASDFIFNTVNLNQTIDGTNFADQLFGGLGNDTLRGFFGNDVLFGEQGDDRFEGGRGNDTFYGGAGNDVFNLEQLQDNDVVTDFVRGQDKIDLRNLNINDWATLQLLISNDGQNNALITTFFNGDQSQIKLLNINPNLLQASDFIFNTVNLNQTIDGTNSPDQLFGGLGNDTLRGFFGNDVLFGEQGDDRFEGGRGNDTFYGGAGNDVFNLEQLQDNDVVTDFVQGQDKIDIRNLNINDWATLQLLISNDGQDNALITTFFNGDQSQIKLLNINPNLLQASDFIFNTVNLNQTIDGTNSPDQLFGGLGNDTLRGFFGNDVLFGEQGDDRFEGGRGNDTFYGGAGNDVFNLEQLQDNDVVIDFVQGQDKIDIRSLNISDWATLQLLISNDGQNNALITTFFNGDQSQIKLNNINPNLLQASDFIFNTNTVNLNQTIDGTNSPDQLFGGLGNDTLRGFFGNDVLFGEQGDDRFEGGAGNDTFYGGTGNDIAVYLGTRSQYQVTSNGGVFTVTDTVANRDGVDTLREVEQIQFSDQTITIGNTSPTITLAVSPASVTEDGTPNLIYTFTRTGSTTNALTVNYSVAGTATLNTDYAQTGAASFTATTGTITFAVGASTAILTINPTADTTVESNETVALTLASGTGYTVGTTTAVTGTITNDDFPSITLAVSPASVTEDGTPNLIYTFTRTGSTTNALTINFGVAGTATLNTDYAQSGAASFTATTGTITFAAGASTAILTINPTADTTVESNETVALTLASGTGYTVGTTTAVTGTITNDDTLPTGITINLSGSQTIVEGNSSPQNVTYTVTLSQASSQIITVQYATANGTATAGSDYTSTTGTLTFNPGETSKVINIPILNDSVNEANETFTLRLTSPTNATLGTTNTVTTTITDTLSASVTTTLPTNVENLTLTGTAAINGTGNAGNNILTGNSGNNILSGGAGNDTYAFVANAALGTDTITETATGGIDTIDFNGSTATVRVNLGVTTSQTVNNNLKLILSANNVIENATGGTGNDRLTGNALNNILAGGNGNDQLQGLAGNDTLWGGLGDDILTGGIGQDKYLFQSSGVFSSSLGVDYISQFDVGQDQIVLSKATFNAVTNSAGQALTDFAVVSDDEFVNASSARIVYSQGSGSLFYNRDGNVLGTSTVFEFARLGNPDITLSSSDFSLIA”, the protein production result was “failed”.

With “MVIRVTERRVKLASIISYDFLFLVLLSGLLNLIITIFRERLLYVLSSFFQYIVSNPSVALGDALGFIFVLQALLLGLFIGGIVILSISFTINLTRIRSEYEEGVPLSTILRSRIITSSRLGIIANWISERSKRYINASADLESPTEVGVRYVAYFLVSLLVVIPVSLALSIALLSPLPFLLIFFPLTFIFYPEQKYKSRAREIRDDIQDEIPFFVTLITIINASGTTIYEGMRKILQFPIFKAMKKEALLIIRDIEFFGKSPLDALEHRSRLTLNRDYSWFLAGYSSIIRSGGDIEAYLFQKAREFLNWLQFRWRFYSERTSFLGELIVILFLIFPMFLIALAFFTSGAVISFLLIIPILFGTILYTITANNRPRYMDSIGLTKLQLLIGFIAALLTAGVIEIFLDEIYYAIGLGLLSFSLASTIFMYNQIREINDVENSLPQFLRDITEFRKIGYDLSRAIKTLAEEKRYRREFNRVLNEITKQDSMGIPITRAKINTRSWLGKFSLTTVQILIESGAVRPDLLEYLTEFTLNFIQSKKEAFSRMRAYQVLGILTPLLLIATILIAIVIIDSFTIVTLPTNTVGLPQFPNIISQFILSPVILAEMFIFILMSTFAIGLLVTKALYGTVQYMIMPAIGLTLAVLSIHFFSVIEPIILKFFSI”, the protein production result is recorded as “failed”.

Regarding “MVKDKNDVGPKTVAILGAGGKMGARITRKIHDSAHHLAAIEIAPEGRDRLQGMGIPLTDGDGWIDEADVVVLALPDNIIEKVAEDIVPRVRPGTIVLILDAAAPYAGVMPERADITYFIGHPCHPPLFNDETDPAARTDYHGGIAKQAIVCALMQGPEEHYAIGADICETMWSPVTRTHRVTTEQLAILEPGLSEMVAMPFVETMVHAVDECADRYGIDRQAALDFMIGHLNVEIAMWFGYSPKVPSDAALRLMEFAKDIVVKEDWREALNPAKVKQAAELIAGK”, the protein production entry is on record as “not failed”.

As for “MVKDLSDMSLKELWQLFPIFLVEHKEEWEDWYEEEKERLLHLLPSQSIKSISHIGSTAVPDIWAKNIVDILLEVPEKEDLQDFKKRLLDAGYLLMSEGEKRLSFNKGYTKDGFAEKVFHLHLRYQGDNDELYFRDYLREYPEVAKDYERLKLGLWEKYEHNRDAYTDAKSDFIRKYTQKAKKNDKGKDN”, the protein production entry is “not failed”.

Take “MVKKIVNPINIIVVVMHISVSIYALFVNVPFKAELFKDNVVLCIYVITFYIGFLLLGDFFRERKIFRKRNDGNRESKTISIIGGIFLFAGILLGMSSVMTIYNIKVDASEYSIGRIIFDTIKVDNVKRESTTSKPQGIFVQRSITTIRTEEVDGISVKSNKRVEFKHCYLYGWQVIEGKIYNVKYLPTTHRILSIEEKK”: the protein production entry was “failed”.

Regarding “MVKLIHTLADHGDDVNCCAFSFSLLATCSLDKTIRLYSLRDFTELPHSPLKFHTYAVHCCCFSPSGHILASCSTDGTTVLWNTENGQMLAVMEQPSGSPVRVCQFSPDSTCLASGAADGTVVLWNAQSYKLYRCGSVKDGSLAACAFSPNGSFFVTGSSCGDLTVWDDKMRCLHSEKAHDLGITCCDFSSQPVSDGEQGLQFFRLASCGQDCQVKIWIVSFTHILGFELKYKSTLSGHCAPVLACAFSHDGQMLVSGSVDKSVIVYDTNTENILHTLTQHTRYVTTCAFAPNTLLLATGSMDKTVNIWQFDLETLCQARSTEHQLKQFTEDWSEEDVSTWLCAQDLKDLVGIFKMNNIDGKELLNLTKESLADDLKIESLGLRSKVLRKIEELRTKVKSLSSGIPDEFICPITRELMKDPVIASDGYSYEKEAMENWISKKKRTSPMTNLVLPSAVLTPNRTLKMAINRWLETHQK”, the protein production entry was “failed”.

Consider “MVKVELVYIANSKNCLHYKMDLKQGATVEEALIESNIYSTCPETRELPVGVYGKRVSVDQVLKEGDRIEIYRPLILDPKEKRRKLAQFKK”, for which the protein production result is listed as “failed”.

For the sequence “MVKVLTACGNGMGSSMVIKMKVENALRQLGVSDIESASCSVGEAKGLASNYDIVVASNHLIHELDGRTNGKLIGLDNLMDDNEIKTKLEEALK”, the protein production entry was “failed”.

As to “MVKVSIICTNYNKGSWIGEAIDSFLKQETSFPYEIIIVDDASTDHSVHIIKTYQKQYPDLIRAFFNQENQGITKTWSDICKKARGQYIARCDGDDYWIDPFKLQKQIDLLETSPESKWSNTDFDMVDSKGNIIHKDVLKNNIIPFMDSYEKMLALKGMTMASTWLVETKLMLEINDRINKDAVDDTFNIQLELFKKTKLAFLRDSTTVYRMDAESDSRSKDSEKLAQRFDRLLETQLEYIEKYPDSDYKKVLEYLLPKHNDFEKVLAQDGKNVWDNQQITIYLAKGDDQEFSEENCFQFPLQHSGNIQLTFPENIRKIRIDLSEIPSYYRQVSLVNTTVNTELLPTWTNAKVFGYSYYFIAPDPQMIYDLTAQEGQDFKLTYEWFNVDRPSQPDFLANHLVKELDQKKVELKMLSPYKYQYQKAVAERDLYLEQLNEMVVRYNSVTHSRRWTIPTKIINLFRRKK”, the protein production entry is “failed”.

As for “MVKVTYDIPTCEDYCALRINAGMSPKTREAAEKGLPNALFTVTLYDKDRLIGMGRVIGDGGTVFQIVDIAVSKSYQGQDYGSLIMEHIMKYIKNVSVESAYVSLIADYPADKLYAKFGFMPTEPDSGGMYIKY”, the protein production entry is “not failed”.

Regarding “MVLDVFIEVSLVIFVAFLISLVMRMLKQPLIIGYILTGILVSPYFLNIVRFEESISTLGHYGVTILLFMVGISLNPGYFKEIGKISVITGLGQIVFTFSIGFLISIFLGYSYIESMYISIALTFSSTIIIMKLISDKGDIDKLYGKISIGFLIVQDIVAMAILILISAFNVQSGAGELLFLLLSKIVLILTAIYIFTKYALSNFISYASKNQEFLFLFSLMWCFTLASIFHLLGFSSEIGALIAGIVLAMFPERYEIASKVRPLRDFFLILFFVVLGVQMTFETSGSFLIPAIILSIFVLFGNPIIVMILMGAFGYTKKTGFLAGLTVAQISEFSLIIASLGLRNGHLSQGIVSMITLIGIITIAGSSYFITYSEKIYSLLSNYLSIFEKKTKMSEKDFKNKNTGEIILFGADRTGKNILNVIENSKERFLIIDYNPKIIKDLSKRGYNSIYGDASNLELLNELNFKESKMLISTISDIETDILLIKTILKSNKNAIIIVIAHKIEDAIKLYEEGASYVIMPHFLGSIHASLMIQKYGLNIEEFLKEKSNHMESLKKSQELFRHTK”, the protein production entry was “failed”.

“MVLEAFLVKKNEPNWLVVLRTVMPLGLSYIPIGLACGVLLHAAGFNHLLTALISVMVFSGGAQFLIASMLTINAPMTTIILMMFFLELRYALLGSSLSRYLKGQSLPFIFTFAFSMNDENYAVNYLKFATDKHWKPSQALMVEHYSLLFWTVSNIIGSLIGSALTINLQVVDFALTALFIYMAIMQTKSRLIILVAVLCGVLTIGFLVLMKSTLGLVVSTLLASLTGYFIERYLLAHKPESHLLYKVHDPTGQTAMEESDK”: the protein production result is on record as “failed”.

With “MVLETVSKTEPPPLLGPRISFSSDLSDGGDFICITPVMCKEDVVKGSVKVSDFEFLSSENVSPQRMLTADELFSEGKLLPFWQVKHSEKLKNITLKTNEEEEAEKRKVEVKKKDQEINNRDNRVTWFIDEDPSPRPPKCTVLWKELLRLKKQRNPSSSPVTARTVSSLSPSSSTSSSSSLEDAAKREEKEKEGKRGKKGLERTRSASMRIRPMIHVPICTPSKSSLPLPPLFPLSLKKNRVERRA”, the protein production result is “failed”.

Take “MVLEVSDHQVLNDAEVAALLENFSSSYDYGENESDSCCTSPPCPQDFSLNFDRAFLPALYSLLFLLGLLGNGAVAAVLLSRRTALSSTDTFLLHLAVADTLLVLTLPLWAVDAAVQWVFGSGLCKVAGALFNINFYAGALLLACISFDRYLNIVHATQLYRRGPPARVTLTCLAVWGLCLLFALPDFIFLSAHHDERLNATHCQYNFPQVGRTALRVLQLVAGFLLPLLVMAYCYAHILAVLLVSRGQRRLRAMRLVVVVVVAFALCWTPYHLVVLVDILMDLGALARNCGRESRVDVAKSVTSGLGYMHCCLNPLLYAFVGVKFRERMWMLLLRLGCPNQRGLQRQPSSSRRDSSWSETSEASYSGL”: the protein production result was “not failed”.
